# Test results: doi:10.1101/2025.09.19.677273
# B1: c8-ring of the Fo domain, P32876 62-136 (natural protein)
# chain: DIDTAAKFIGAGAATVGVAGSGAGIGTVFGSLIIGYARNPSLKQQLFSYAILGFALSEAMGLFCLMVAFLILFAM
# Biological target: c8-ring of the Fo domain (bovine (endogenous in bovine heart mitochondria)), P32876
# Assay: cryo-EM structure
# Settings: remark: other sources report otherwise
binder,measurement,value
B1,stoichiometry N,8
